{"source": "the supplement of paper PMC10567573", "parents": {"B1": {"name": "KRT18 (parent)", "chain": "RVRSLETENRRLESKIREHLEKKG"}}, "data": [{"variants_of": "B1", "assay": "protein stability index of a GFP-peptide fusion (GPS, HEK-293T) (PSI 1-6); higher = more stable", "settings": "c terminus: a fixed tail appended", "values": [{"variant": "RVRSLETENRRLESKIREHLESKG", "note": "[K22S]", "protein stability index": 4.05}, {"variant": "RVRSLETENRRLESKIREHLEGKG", "note": "[K22G]", "protein stability index": 4.06}, {"variant": "RVRSLETENRRLESKIREHLEQKG", "note": "[K22Q]", "protein stability index": 4.89}, {"variant": "RVRSLETENRRLESKIREHPEKKG", "note": "[L20P]", "protein stability index": 5.58}, {"variant": "RVRSLETENRRLESKIREHGEKKG", "note": "[L20G]", "protein stability index": 4.97}, {"variant": "RVRSLETENRRLESKIREHMEKKG", "note": "[L20M]", "protein stability index": 5.12}, {"variant": "RVRSLETENRRLESKIREHAEKKG", "note": "[L20A]", "protein stability index": 5.1}, {"variant": "RVRSLETENRRLESKIREHVEKKG", "note": "[L20V]", "protein stability index": 4.94}, {"variant": "RVRSLETENRRLESKIREHEEKKG", "note": "[L20E]", "protein stability index": 5.7}, {"variant": "RVRSLETENRRLEQKIREHLEKKG", "note": "[S14Q]", "protein stability index": 4.99}, {"variant": "RVRSLETENRRLETKIREHLEKKG", "note": "[S14T]", "protein stability index": 4.47}, {"variant": "RVRSLETENRRLEVKIREHLEKKG", "note": "[S14V]", "protein stability index": 4.16}, {"variant": "RVRSLETENRRLEGKIREHLEKKG", "note": "[S14G]", "protein stability index": 4.96}, {"variant": "RVRSLETENRRLEWKIREHLEKKG", "note": "[S14W]", "protein stability index": 3.98}, {"variant": "RVRSLETENRRLECKIREHLEKKG", "note": "[S14C]", "protein stability index": 3.84}, {"variant": "RVRSLETENRRLEKKIREHLEKKG", "note": "[S14K]", "protein stability index": 4.19}, {"variant": "EVRSLETENRRLESKIREHLEKKG", "note": "[R1E]", "protein stability index": 3.5}, {"variant": "NVRSLETENRRLESKIREHLEKKG", "note": "[R1N]", "protein stability index": 4.56}, {"variant": "IVRSLETENRRLESKIREHLEKKG", "note": "[R1I]", "protein stability index": 3.38}, {"variant": "MVRSLETENRRLESKIREHLEKKG", "note": "[R1M]", "protein stability index": 4.09}, {"variant": "CVRSLETENRRLESKIREHLEKKG", "note": "[R1C]", "protein stability index": 4.66}, {"variant": "KVRSLETENRRLESKIREHLEKKG", "note": "[R1K]", "protein stability index": 3.94}, {"variant": "DVRSLETENRRLESKIREHLEKKG", "note": "[R1D]", "protein stability index": 4.9}, {"variant": "RVRSLETENRRLESMIREHLEKKG", "note": "[K15M]", "protein stability index": 4.02}, {"variant": "RVRSLETENRRLESEIREHLEKKG", "note": "[K15E]", "protein stability index": 5.16}, {"variant": "RVRSLETENRRLESHIREHLEKKG", "note": "[K15H]", "protein stability index": 3.6}, {"variant": "RVRSLETENRRLESRIREHLEKKG", "note": "[K15R]", "protein stability index": 4.67}, {"variant": "RVRSLETENRRLESCIREHLEKKG", "note": "[K15C]", "protein stability index": 4.06}, {"variant": "RVRSLETENRRLESTIREHLEKKG", "note": "[K15T]", "protein stability index": 4.76}, {"variant": "RVRSLLTENRRLESKIREHLEKKG", "note": "[E6L]", "protein stability index": 2.31}, {"variant": "RVRSLRTENRRLESKIREHLEKKG", "note": "[E6R]", "protein stability index": 3.96}, {"variant": "RVRSLVTENRRLESKIREHLEKKG", "note": "[E6V]", "protein stability index": 4.11}, {"variant": "RVRSLPTENRRLESKIREHLEKKG", "note": "[E6P]", "protein stability index": 4.44}, {"variant": "RVRSLTTENRRLESKIREHLEKKG", "note": "[E6T]", "protein stability index": 3.01}, {"variant": "RVRSLKTENRRLESKIREHLEKKG", "note": "[E6K]", "protein stability index": 4.02}, {"variant": "RVRSLYTENRRLESKIREHLEKKG", "note": "[E6Y]", "protein stability index": 2.53}, {"variant": "RVRSLFTENRRLESKIREHLEKKG", "note": "[E6F]", "protein stability index": 3.32}, {"variant": "RVRSMETENRRLESKIREHLEKKG", "note": "[L5M]", "protein stability index": 4.77}, {"variant": "RVRSTETENRRLESKIREHLEKKG", "note": "[L5T]", "protein stability index": 4.35}, {"variant": "RVRSYETENRRLESKIREHLEKKG", "note": "[L5Y]", "protein stability index": 4.32}, {"variant": "RVRSWETENRRLESKIREHLEKKG", "note": "[L5W]", "protein stability index": 4.29}, {"variant": "RVRSAETENRRLESKIREHLEKKG", "note": "[L5A]", "protein stability index": 4.54}, {"variant": "RVRSNETENRRLESKIREHLEKKG", "note": "[L5N]", "protein stability index": 5.06}, {"variant": "RVRSCETENRRLESKIREHLEKKG", "note": "[L5C]", "protein stability index": 3.41}, {"variant": "RVRSLETENRRLGSKIREHLEKKG", "note": "[E13G]", "protein stability index": 4.75}, {"variant": "RVRSLETENRRLTSKIREHLEKKG", "note": "[E13T]", "protein stability index": 4.1}, {"variant": "RVRSLETENRRLRSKIREHLEKKG", "note": "[E13R]", "protein stability index": 3.99}, {"variant": "RVRSLETENRRLQSKIREHLEKKG", "note": "[E13Q]", "protein stability index": 3.95}, {"variant": "RVRSLETENRRLCSKIREHLEKKG", "note": "[E13C]", "protein stability index": 4.3}, {"variant": "RVRSLETENRRLPSKIREHLEKKG", "note": "[E13P]", "protein stability index": 4.33}, {"variant": "RVRSLETENRRLISKIREHLEKKG", "note": "[E13I]", "protein stability index": 2.37}, {"variant": "RVLSLETENRRLESKIREHLEKKG", "note": "[R3L]", "protein stability index": 4.51}, {"variant": "RVDSLETENRRLESKIREHLEKKG", "note": "[R3D]", "protein stability index": 4.22}, {"variant": "RVHSLETENRRLESKIREHLEKKG", "note": "[R3H]", "protein stability index": 3.61}, {"variant": "RVFSLETENRRLESKIREHLEKKG", "note": "[R3F]", "protein stability index": 3.46}, {"variant": "RVVSLETENRRLESKIREHLEKKG", "note": "[R3V]", "protein stability index": 4.44}, {"variant": "RVESLETENRRLESKIREHLEKKG", "note": "[R3E]", "protein stability index": 4.85}, {"variant": "RVYSLETENRRLESKIREHLEKKG", "note": "[R3Y]", "protein stability index": 3.15}, {"variant": "RVRSLETENRRLESKIRFHLEKKG", "note": "[E18F]", "protein stability index": 3.22}, {"variant": "RVRSLETENRRLESKIRAHLEKKG", "note": "[E18A]", "protein stability index": 4.46}, {"variant": "RVRSLETENRRLESKIRYHLEKKG", "note": "[E18Y]", "protein stability index": 4.07}, {"variant": "RVRSLETENRRLESKIRDHLEKKG", "note": "[E18D]", "protein stability index": 4.53}, {"variant": "RVRSLETENRRLESKIRWHLEKKG", "note": "[E18W]", "protein stability index": 4.51}, {"variant": "RVRSLETENRRLESKIRQHLEKKG", "note": "[E18Q]", "protein stability index": 3.75}, {"variant": "RVRSLETENRRLESKIREHLEKFG", "note": "[K23F]", "protein stability index": 3.76}, {"variant": "RVRSLETENRRLESKIREHLEKNG", "note": "[K23N]", "protein stability index": 4.78}, {"variant": "RVRSLETENRRLESKIREHLEKTG", "note": "[K23T]", "protein stability index": 4.22}, {"variant": "RVRSLETENRRLESKIREHLEKLG", "note": "[K23L]", "protein stability index": 3.87}, {"variant": "RVRSLETENRRLESKIREHLEKGG", "note": "[K23G]", "protein stability index": 4.75}, {"variant": "RVRSLETENRRLESKIREHLEKIG", "note": "[K23I]", "protein stability index": 3.2}, {"variant": "RVRSLETENRRLESKIREHLEKQG", "note": "[K23Q]", "protein stability index": 4.32}, {"variant": "RVRSLETENRRLESKIHEHLEKKG", "note": "[R17H]", "protein stability index": 5.06}, {"variant": "RVRSLETENRRLESKIFEHLEKKG", "note": "[R17F]", "protein stability index": 4.55}, {"variant": "RVRSLETENRRLESKIDEHLEKKG", "note": "[R17D]", "protein stability index": 5.49}, {"variant": "RVRSLETENRRLESKIIEHLEKKG", "note": "[R17I]", "protein stability index": 4.37}, {"variant": "RVRSLETENRRLESKILEHLEKKG", "note": "[R17L]", "protein stability index": 4.22}, {"variant": "RVRSLETENRRLESKITEHLEKKG", "note": "[R17T]", "protein stability index": 5}, {"variant": "RVRSLETENRRLESKIPEHLEKKG", "note": "[R17P]", "protein stability index": 4.84}, {"variant": "RVRSLETENRLLESKIREHLEKKG", "note": "[R11L]", "protein stability index": 4.31}, {"variant": "RVRSLETENRCLESKIREHLEKKG", "note": "[R11C]", "protein stability index": 4.96}, {"variant": "RVRSLETENRALESKIREHLEKKG", "note": "[R11A]", "protein stability index": 4.43}, {"variant": "RVRSLETENRHLESKIREHLEKKG", "note": "[R11H]", "protein stability index": 4.91}, {"variant": "RVRSLETENRNLESKIREHLEKKG", "note": "[R11N]", "protein stability index": 4.35}, {"variant": "RVRSLETENRILESKIREHLEKKG", "note": "[R11I]", "protein stability index": 4.47}, {"variant": "RVRSLETENRGLESKIREHLEKKG", "note": "[R11G]", "protein stability index": 3.96}, {"variant": "RVRSLETENRELESKIREHLEKKG", "note": "[R11E]", "protein stability index": 4.73}, {"variant": "RVRSLETMNRRLESKIREHLEKKG", "note": "[E8M]", "protein stability index": 4.32}, {"variant": "RVRSLETHNRRLESKIREHLEKKG", "note": "[E8H]", "protein stability index": 4.36}, {"variant": "RVRSLETLNRRLESKIREHLEKKG", "note": "[E8L]", "protein stability index": 4.33}, {"variant": "RVRSLETCNRRLESKIREHLEKKG", "note": "[E8C]", "protein stability index": 4.22}, {"variant": "RVRSLETANRRLESKIREHLEKKG", "note": "[E8A]", "protein stability index": 4.08}, {"variant": "RVRSLETKNRRLESKIREHLEKKG", "note": "[E8K]", "protein stability index": 3.89}, {"variant": "RVRSLETTNRRLESKIREHLEKKG", "note": "[E8T]", "protein stability index": 4.2}, {"variant": "RVRSLETQNRRLESKIREHLEKKG", "note": "[E8Q]", "protein stability index": 3.38}]}]}
